20 molecules from patent US20150344570A1 (published 2015) can be followed below.

Assay [1] concerns the target T1, FcγRIa extracellular domain with C-terminal His tag (human, UniProt P12314 16-292).
T1 construct: extracellular domain; expressed in FreeStyle293 cells; analyte in Biacore; also called FcgRI; 1a
Description: SPR (Biacore), captured antibody, FcγR as analyte; relative binding. A general note: In SPR one partner is held on a chip, and binding of the other changes the refractive index at the surface.

Assay [2] deals with T2, FcγRIIb extracellular domain with C-terminal His tag (human, UniProt P31994 43-217).
T2 construct: extracellular domain; expressed in FreeStyle293 cells; analyte in Biacore; also called FcgRIIb; 2b
T2 sequence (looked up): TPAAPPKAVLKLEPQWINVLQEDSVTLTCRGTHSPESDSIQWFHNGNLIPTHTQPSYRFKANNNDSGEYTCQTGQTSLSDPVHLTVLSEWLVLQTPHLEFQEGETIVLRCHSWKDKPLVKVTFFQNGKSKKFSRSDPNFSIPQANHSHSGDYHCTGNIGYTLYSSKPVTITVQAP
The description is as above.

Assay [3] deals with T1, FcγRIa extracellular domain with …. Description: SPR (Biacore); He/Con_1a divided by He/Con_2b (FcγRIIb as reference).
Assay [4] has as its target T3, FcγRIa (human, UniProt P12314 16-292).
T3 construct: extracellular domain; Soluble extracellular domain with C-terminal His tag, expressed in FreeStyle293 cells; analyte in Biacore; also called FcgRI; CD64; not shown: His tag attached to the C terminus
Put plainly: SPR (Biacore), antibody captured on antigen-peptide chip, FcγRIa as analyte; binding activity relative to control GpH7-A5/GpH7-B3/GpL16-k0 (HeCon Ab) x100. As for the experimental part: (§1) Analysis of interaction between objective antibody and the FcγR was carried out using Biacore T100 (GE Healthcare). HBS-EP+ (GE Healthcare) was used as the running buffer, and the measurement temperature was set to 25° C. Chips produced by immobilizing the antigen peptide by the amine coupling method to a Series S Sencor Chip CM5 (GE Healthcare), or alternatively, chips produced by allowing preliminarily biotinylated antigen peptides to interact with and immobilize onto a Series S Sensor Chip SA (certified) (GE Healthcare) were used. Antibodies of interest were captured onto an antigen peptide-immobilized chip, and allowed to interact to each FcγR diluted with running buffer. To regenerate and repeatedly use the chip, the antibodies captured on the chip were washed off by reacting 10 mM glycine-HCl, pH 1.5.

For assay [5], the target named is T3, FcγRIa. Description: SPR (Biacore), antibody captured on antigen-peptide chip, FcγRIa as analyte; binding activity relative to control GpH7-B3/GpL16-k0 (HoCon Ab) x100. The method, then: as §1

T1 sequence (P12314 16-292): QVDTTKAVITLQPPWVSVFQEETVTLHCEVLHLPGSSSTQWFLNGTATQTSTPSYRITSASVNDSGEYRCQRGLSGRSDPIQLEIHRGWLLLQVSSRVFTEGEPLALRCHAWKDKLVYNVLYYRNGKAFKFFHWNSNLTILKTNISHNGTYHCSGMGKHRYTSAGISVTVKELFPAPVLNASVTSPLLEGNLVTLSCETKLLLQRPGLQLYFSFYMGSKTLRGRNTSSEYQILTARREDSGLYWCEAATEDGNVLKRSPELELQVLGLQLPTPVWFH
T3 sequence (P12314 16-292): as above

B1: GpH7-A5/GpH7-B3 variant D265_01G/GpL16-k0 (antibody, human IgG1, kappa)
heavy 1: not shown
heavy 2: not shown
light: DIVMTQSPLSLPVTPGEPASISCQASESLVHSNRNTYLHWYLQKPGQSPQLLIYKVSNRFSGVPDRFSGSGSGTDFTLKISRVEAEDVGVYYCSQNTHVPPTFGQGTKVEIERTVAAPSVFIFPPSDEQLKSGTASVVCLLNNFYPREAKVQWKVDNALQSGNSQESVTEQDSKDSTYSLSSTLTLSKADYEKHKVYACEVTHQGLSSPVTKSFNRGEC
notes: He Ab; IgG1, mutation in one H chain
As for B1, in assay [1], the He/Con_1a was 79.9 % of HeCon Ab (GpH7-A5/GpH7-B3/GpL16-k0 = 100). For the same molecule, the He/Con_2b in assay [2] was 16.1 % of HeCon Ab (GpH7-A5/GpH7-B3/GpL16-k0 = 100). Further, in assay [3], the “He_1a/2b (Ia/IIb)” value was 4.95 ratio.

B2: GpH7-A5/GpH7-B3 variant Y300_01G/GpL16-k0 (heterodimerized antibody, He Ab) (antibody, human IgG1, kappa)
heavy 1: not shown
heavy 2: not shown
light: B1 light
notes: Anti-glypican-3 IgG1; alteration only in the GpH7-B3 (K439E) chain; other H chain is GpH7-A5 (D356K/H435R)
As to B2, the He/Con_1a in assay [4] is 116 % of control (=100).

B3: GpH7-A5/GpH7-B3 variant T335_16H/GpL16-k0 (heterodimerized antibody, He Ab) (antibody, human IgG1, kappa)
heavy 1: not shown
heavy 2: not shown
light: B1 light
notes: as for B2
On to B3, for which the He/Con_1a in assay [4] was 106 % of control (=100).

B4: GpH7-B3 variant Y300_14T/GpL16-k0 (homodimerized antibody, Ho Ab) (antibody, human IgG1, kappa)
heavy: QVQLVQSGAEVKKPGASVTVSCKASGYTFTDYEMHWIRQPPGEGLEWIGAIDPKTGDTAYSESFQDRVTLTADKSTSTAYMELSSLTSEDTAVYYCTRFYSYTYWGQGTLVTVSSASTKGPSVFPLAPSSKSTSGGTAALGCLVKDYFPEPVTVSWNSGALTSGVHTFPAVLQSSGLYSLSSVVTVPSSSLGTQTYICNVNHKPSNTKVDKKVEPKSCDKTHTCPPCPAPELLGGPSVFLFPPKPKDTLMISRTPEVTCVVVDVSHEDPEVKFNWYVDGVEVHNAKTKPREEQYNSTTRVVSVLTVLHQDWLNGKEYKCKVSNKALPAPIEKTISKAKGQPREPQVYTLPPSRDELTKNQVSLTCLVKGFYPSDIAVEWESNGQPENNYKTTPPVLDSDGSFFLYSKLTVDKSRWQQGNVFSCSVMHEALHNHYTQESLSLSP
light: B1 light
notes: Anti-glypican-3 IgG1 (G1d with K439E); same alteration in both H chains
With B4, the Ho/Con_1a in assay [5] is 110 % of control (=100).

B5: GpH7-A5/GpH7-B3 variant D265_07I/GpL16-k0 (antibody, human IgG1, kappa)
heavy 1: not shown
heavy 2: not shown
light: B1 light
notes: as for B1
In the case of B5, in assay [1], the He/Con_1a was 54.4 % of HeCon Ab (GpH7-A5/GpH7-B3/GpL16-k0 = 100). Also, the He/Con_2b in assay [2] was 1.3 % of HeCon Ab (GpH7-A5/GpH7-B3/GpL16-k0 = 100). For the same molecule, the “He_1a/2b (Ia/IIb)” value in assay [3] stood at 41.2 ratio.

B6: GpH7-A5/GpH7-B3 variant D265_03V/GpL16-k0 (antibody, human IgG1, kappa)
heavy 1: not shown
heavy 2: not shown
light: B1 light
notes: as for B1
On to B6, for which the He/Con_1a in assay [1] is 55.7 % of HeCon Ab (GpH7-A5/GpH7-B3/GpL16-k0 = 100). Moreover, the He/Con_2b in assay [2] is 3.2 % of HeCon Ab (GpH7-A5/GpH7-B3/GpL16-k0 = 100). Further, the “He_1a/2b (Ia/IIb)” value in assay [3] is 17.3 ratio.

B7: GpH7-A5/GpH7-B3 variant Y296_10E/GpL16-k0 (heterodimerized antibody, He Ab) (antibody, human IgG1, kappa)
heavy 1: not shown
heavy 2: not shown
light: B1 light
notes: as for B2
Take B7: the He/Con_1a in assay [4] is 106 % of control (=100).

B8: GpH7-A5/GpH7-B3 variant D265_10E/GpL16-k0 (antibody, human IgG1, kappa)
heavy 1: not shown
heavy 2: not shown
light: B1 light
notes: as for B1
As for B8, the He/Con_1a in assay [1] is 101 % of HeCon Ab (GpH7-A5/GpH7-B3/GpL16-k0 = 100). In addition, in assay [2], the He/Con_2b is 38.2 % of HeCon Ab (GpH7-A5/GpH7-B3/GpL16-k0 = 100). Besides, the “He_1a/2b (Ia/IIb)” value in assay [3] is 2.66 ratio.

B9: GpH7-A5/GpH7-B3 variant Y300_19Q/GpL16-k0 (heterodimerized antibody, He Ab) (antibody, human IgG1, kappa)
heavy 1: not shown
heavy 2: not shown
light: B1 light
notes: as for B2
B9: the He/Con_1a in assay [4] is 112 % of control (=100).

B10: GpH7-A5/GpH7-B3 variant T335_18N/GpL16-k0 (heterodimerized antibody, He Ab) (antibody, human IgG1, kappa)
heavy 1: not shown
heavy 2: not shown
light: B1 light
notes: as for B2
Take B10: the He/Con_1a in assay [4] was 106 % of control (=100).

B11: GpH7-A5/GpH7-B3 variant Y300_13S/GpL16-k0 (heterodimerized antibody, He Ab) (antibody, human IgG1, kappa)
heavy 1: not shown
heavy 2: not shown
light: B1 light
notes: as for B2
With B11, the He/Con_1a in assay [4] is 111 % of control (=100).

B12: GpH7-A5/GpH7-B3 variant Y300_14T/GpL16-k0 (heterodimerized antibody, He Ab) (antibody, human IgG1, kappa)
heavy 1: not shown
heavy 2: not shown
light: B1 light
notes: as for B2
As for B12, the He/Con_1a in assay [4] is 112 % of control (=100).

B13: GpH7-A5/GpH7-B3 variant Y296_14T/GpL16-k0 (heterodimerized antibody, He Ab) (antibody, human IgG1, kappa)
heavy 1: not shown
heavy 2: not shown
light: B1 light
notes: as for B2
B13: the He/Con_1a in assay [4] is 105 % of control (=100).

B14: GpH7-A5/GpH7-B3 variant Y296_11K/GpL16-k0 (heterodimerized antibody, He Ab) (antibody, human IgG1, kappa)
heavy 1: not shown
heavy 2: not shown
light: B1 light
notes: as for B2
As to B14, the He/Con_1a in assay [4] was 105 % of control (=100).

B15: GpH7-A5/GpH7-B3 variant Y296_06M/GpL16-k0 (heterodimerized antibody, He Ab) (antibody, human IgG1, kappa)
heavy 1: not shown
heavy 2: not shown
light: B1 light
notes: as for B2
B15: the He/Con_1a in assay [4] was 104 % of control (=100).

B16: GpH7-A5/GpH7-B3 variant D265_04F/GpL16-k0 (antibody, human IgG1, kappa)
heavy 1: not shown
heavy 2: not shown
light: B1 light
notes: as for B1
As to B16, in assay [1], the He/Con_1a was 53 % of HeCon Ab (GpH7-A5/GpH7-B3/GpL16-k0 = 100). In addition, in assay [2], the He/Con_2b is 3.2 % of HeCon Ab (GpH7-A5/GpH7-B3/GpL16-k0 = 100). Also, the “He_1a/2b (Ia/IIb)” value in assay [3] turned out to be 16.8 ratio.

B17: GpH7-A5/GpH7-B3 variant D265_14T/GpL16-k0 (antibody, human IgG1, kappa)
heavy 1: not shown
heavy 2: not shown
light: B1 light
notes: as for B1
With B17, the He/Con_1a in assay [1] is 78.5 % of HeCon Ab (GpH7-A5/GpH7-B3/GpL16-k0 = 100). For the same molecule, in assay [2], the He/Con_2b is 16 % of HeCon Ab (GpH7-A5/GpH7-B3/GpL16-k0 = 100). Further, the “He_1a/2b (Ia/IIb)” value in assay [3] amounted to 4.9 ratio.

B18: GpH7-A5/GpH7-B3 variant D265_11K/GpL16-k0 (antibody, human IgG1, kappa)
heavy 1: not shown
heavy 2: not shown
light: B1 light
notes: as for B1
For the molecule B18, in assay [1], the He/Con_1a is 43.2 % of HeCon Ab (GpH7-A5/GpH7-B3/GpL16-k0 = 100). The He/Con_2b in assay [2] was 14.9 % of HeCon Ab (GpH7-A5/GpH7-B3/GpL16-k0 = 100). The “He_1a/2b (Ia/IIb)” value in assay [3] is 2.9 ratio.

B19: GpH7-A5/GpH7-B3 variant Y296_12R/GpL16-k0 (heterodimerized antibody, He Ab) (antibody, human IgG1, kappa)
heavy 1: not shown
heavy 2: not shown
light: B1 light
notes: as for B2
As for B19, in assay [4], the He/Con_1a is 106 % of control (=100).

B20: GpH7-A5/GpH7-B3 variant T335_20W/GpL16-k0 (heterodimerized antibody, He Ab) (antibody, human IgG1, kappa)
heavy 1: not shown
heavy 2: not shown
light: B1 light
notes: as for B2
On to B20, for which the He/Con_1a in assay [4] is 106 % of control (=100).
